# Reference: PMC2120827
# B1: SCS6 (structured_DNA)
# DNA: GCAGAACAATGGCGTTAGCTCGCCATTGTTCTG
# Biological target: GST-Sox17 (mouse, UniProt Q61473 24-366)
# Assay: EMSA
# Sequence of GST-Sox17 (Q61473 24-366): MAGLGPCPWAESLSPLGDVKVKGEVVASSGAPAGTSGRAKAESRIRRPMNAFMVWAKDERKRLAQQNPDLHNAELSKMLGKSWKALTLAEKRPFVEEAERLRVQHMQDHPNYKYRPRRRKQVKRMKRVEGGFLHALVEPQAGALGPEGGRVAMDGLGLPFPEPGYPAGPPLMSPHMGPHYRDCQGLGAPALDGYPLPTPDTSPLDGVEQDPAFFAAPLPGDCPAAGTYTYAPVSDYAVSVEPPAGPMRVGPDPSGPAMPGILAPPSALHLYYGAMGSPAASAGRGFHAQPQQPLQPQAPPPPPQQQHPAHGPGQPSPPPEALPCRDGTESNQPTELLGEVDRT
binder,measurement,value
B1,binding result,binds
